From patent US20180346588A1

Key:
[1] = biological target: human mesothelin (MSLN) on the cell surface (human) (UniProt Q13421); test: FACS on MiaPaCa-MSLN #2 cells, upper histogram and table; negative control
[2] = biological target: human mesothelin (MSLN) on the cell surface (human) (UniProt Q13421); test: FACS on MSLN stable cell line (#2), left panels; negative control; sheet note: 1st Ab 1 µg (1st assay), 2nd Ab anti-human Fc antibody FITC
[3] = biological target: human mesothelin (MSLN) on the cell surface (human) (UniProt Q13421); test: FACS on MSLN stable cell line (#2), right panels; negative control; sheet note: 1st Ab 0.36 µg (2nd assay), 2nd Ab anti-human Fc antibody FITC
[4] = biological target: human mesothelin (MSLN) on the cell surface (human) (UniProt Q13421); test: FACS on MiaPaCa-MSLN #2 cells, upper histogram and table
[5] = biological target: human mesothelin (MSLN) on the cell surface (human) (UniProt Q13421); test: FACS on MSLN stable cell line (#2), left panels; sheet note: 1st Ab 1 µg (1st assay), 2nd Ab anti-human Fc antibody FITC
[6] = biological target: human mesothelin (MSLN) on the cell surface (human) (UniProt Q13421); test: FACS on MSLN stable cell line (#2), right panels; sheet note: 1st Ab 0.36 µg (2nd assay), 2nd Ab anti-human Fc antibody FITC

human mesothelin (MSLN) on the cell surface (human), sequence (Q13421 other isoform, or with tags, fused parts or gaps limits assumed): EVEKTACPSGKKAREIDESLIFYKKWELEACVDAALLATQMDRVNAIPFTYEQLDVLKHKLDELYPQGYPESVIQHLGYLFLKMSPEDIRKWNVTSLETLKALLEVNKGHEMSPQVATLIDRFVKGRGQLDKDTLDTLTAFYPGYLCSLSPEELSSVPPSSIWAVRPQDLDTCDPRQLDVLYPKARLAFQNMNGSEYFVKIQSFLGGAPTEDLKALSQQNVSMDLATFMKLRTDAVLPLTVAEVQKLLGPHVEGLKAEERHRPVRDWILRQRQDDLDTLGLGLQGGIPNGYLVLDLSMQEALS

| Mean, FL2-H [1] | Mean, FL1-H [2] | Mean, FL1-H [3] | Mean, FL2-H [4] | Mean, FL1-H [5] | Mean, FL1-H [6] | Substance |
| --- | --- | --- | --- | --- | --- | --- |
| 8.6 | 3.36 | 4.81 | – | – | – | hIgG (antibody) |
| – | – | – | 3190 | 515 | 263 | Morab (antibody) |
